We go through two substances from PMC3932411.

The nature of one data set: I-V relationship. To be noted: glycan lost; control: untreated WT (DMSO).
The nature of data set [1]: whole-cell patch clamp, +100 mV. To be noted: glycan lost; control: untreated WT (DMSO).
Data set [2] is described as follows: I-V relationship, plateau phase. To be noted: glycan lost; control: wild type.
Data set [3] in a line: cell surface biotinylation, Western blot. To be noted: glycan lost; control: wild type. A general note: A western blot detects proteins with antibodies after separation by electrophoresis.

For the substance “TRPM4 (TRPM4b): tunicamycin (10 μg/ml; 19 h)”, the “other: channel voltage dependence” value in the data set “I-V relationship” was “no change”. For the same substance, the “other: channel deactivation kinetics, other: deactivation slope” value in data set [1] is on record as “no change, 5265 ± 572 vs 4855 ± 379”.
TRPM4 (TRPM4b): N992Q: the “other: channel voltage dependence” value in data set [2] is on record as “no change”. In data set [3], the localisation_or_trafficking entry was “no change”.
